Measured values as given in patent US12454527B2, “Conjugate monomethyl auristatin E to obtain a composition for treatment of prostate cancer” (priority 2019, dated 2025).
Several values for one entry are separate records, joined by “and”; a condition that tells them apart may be missing. Equal values may be shown once. Entries after “also recorded” stand apart in the source; their conditions may differ. Starred links: 1 amine or outer side, 2 acyl side, 3 side chain; linkers in the order of their positions; H or OH if unused. Non-standard residues stand in square brackets, D forms with d. Residues, ends and D or L forms follow the SMILES beside them. ξ: configuration not given here. *: point of attachment. GluureaLys(ε-3-ClBenzyl) = O=C(O)CC[C@H](NC(=O)N[C@@H](CCCCN(Cc1cccc(Cl)c1)*)C(=O)O)C(=O)O; Dolaproine = CO[C@@H]([C@@H]1CCCN1)[C@@H](C)C(=O)O; Dil = CC[C@H](C)[C@H](NC)[C@@H](CC(=O)O)OC; X1 = O=C(CCCc1cn(CCCN[*:1])nn1)[*:2]; PABC = O=C(OCc1ccc(N[*:1])cc1)[*:2]; X2 = C[C@@H](N*)[C@@H](O)c1ccccc1; Cit = NC(=O)NCCC[C@H](N)C(=O)O; Suc = O=C(CCC(=O)[*:2])[*:1]; NMeV = CN[C@H](C(=O)O)C(C)C; ξV = CC(C)C(N)C(=O)O; Ahx = NCCCCCC(=O)O

Legend:
[1] = Chronic toxicity study, intravenous once every 3 weeks, rats; assay type: in vivo; conditions: for Necropsy / Signs of intoxication: male rats
Source text: Chronic toxicity study of Conjugate (1) product on Rats and rabbits.
• 1. Conjugate (I). • 2. Solubilizer Pluronic F127—in the amount, five-fold greater than the conjugate amount by weight. • 3. Diluent—Haemodes infusion solution. • 4. Dimethyl sulfoxide—in the amount of 5% of the prepared volume.
A 1 00 white ° inbred mature male rats about 2 months old with a body weight of 190-210 g and 60 sexually mature male rabbits of the Soviet Chinchilla breed about 2 months old with a body weight of […] were involved in the experiment.
The study design determined the intravenous administration of the test drugs once every 3 weeks for 3 months (a total of 4 injections) for the experiment of chronic toxicity determination. The local irritant effect of the products within intravenous administration will be studied together with the chronic toxicity study.
Each animal received the intravenous injection of the test drug or the reference drug in a volume not exceeding the acceptable volume for a single injection of 2 mL for rats and 20 mL for rabbits. The products were replaced with a Pluronic solution with DMSO in Haemodes in the control group of animals. The duration of observation for laboratory animals was 4 weeks (intermediate stage).
Apparent signs of intoxication were evaluated daily. During the study, integral indicators of animal health were recorded (see Tables 15. 16, 17).

Lymphoid Leukosis P388 = assay: Antineoplastic activity on lymphoid leukosis P388 model (lifespan/survival); assay type: in vivo, male mice BDF1; conditions: 0.5 and 1 mg/kg
Procedure: Lymphoid Leukosis P388 (male mice BDF1)—observation was held for 30 days since the first product administration (the product administration was started 24 hours after revaccination) and it was administered 3 times intraperitoneally in a day.
• 1. Group 1—tumor growth control (TGC) • 2. Group 2—placebo (diluent) • 3. Group 3—intraperitoneal Conjugate (I) administration in a dose of 0.5 mg/kg 3 times; • 4. Group 4—intraperitoneal Conjugate (I) administration in a dose of 1.0 mg/kg 3 times:
Experimental animals of control group (TGC) were administered with 0.9% saline, the placebo group was injected with the diluent (DMSO+Haemodes) of similar volume. The antineoplastic activity was determined according to mice lifespan.

[2] = Acute toxicity study, single intravenous administration, rats; assay type: in vivo; conditions: for Necropsy (per animal): day 14; for Necropsy (per animal) / Necropsy / Signs of intoxication: listed as test drug
Source text: Acute toxicity study of Conjugate (I) product on mice and rats.
• 1. Conjugate (I). • 2. Solubilizer Pluronic F127—in the amount, five-fold greater than the conjugate amount by weight. • 3. Diluent Haemodes infusion solution. • 4. Dimethyl sulfoxide—in the amount of 5% of the prepared volume.
The experiment took white outbred male mice aged about 2 months with body weight of 19-21,g, and also white outbred mature male rats aged about 2 months with body weight 190-210 g.
Acute toxicity study was performed within the intravenous administration. Before the start of the experiment to determine an acute toxicity, the animals were deprived of food and water (mice were deprived for 2 hours, rats—for 10-12 hours), and then weighed. Then each animal received the intravenous drug injection according to the study design, in a volume not exceeding the acceptable single injection volume: 0.5 mL for mice, 2 mL for rats, and fractionally if necessary. The control group of animals received Pluronic solution in Haemodes in the proportion used fort dose preparation of 78 mg/kg for mice and 38 mg/kg for rats. The duration of observation for laboratory animals was 14 days. During this period, visible signs of intoxication were assessed (see Table 9).

[3] = group 2, 150 μg/kg intravenously 1 time in 3 weeks
[4] = group 3, 188 μg/kg intravenously 1 time in 3 weeks

CC[C@H](C)[C@@H]([C@@H](CC(=O)N1CCC[C@H]1[C@H](OC)[C@@H](C)C(=O)N[C@H](C)[C@@H](O)c1ccccc1)OC)N(C)C(=O)[C@@H](NC(=O)[C@H](C(C)C)N(C)C(=O)OCc1ccc(NC(=O)[C@H](CCCNC(N)=O)NC(=O)C(NC(=O)CCCc2cn(CCCNC(=O)[C@H](Cc3ccc(O)cc3)NC(=O)[C@H](Cc3ccccc3)NC(=O)CCC(=O)NCCCCCC(=O)N(CCCC[C@H](NC(=O)N[C@@H](CCC(=O)O)C(=O)O)C(=O)O)Cc3cccc(Cl)c3)nn2)C(C)C)cc1)C(C)C (stereo partly drawn) [Conjugate (I)] ({GluureaLys(ε-3-ClBenzyl)-Ahx-Suc}-FY[X1][ξV][Cit][PABC][NMeV]V[Dil][Dolaproine]-X2)
Necropsy [1, 3]: None
Signs of intoxication [1, 3]: No signs of intoxication
Necropsy [1, 4]: None
Signs of intoxication [1, 4]: No signs of intoxication
Necropsy ([1]; group 4, 225 μg/kg intravenously 1 time in 3 weeks): None
Signs of intoxication ([1]; group 4, 225 μg/kg, 2-3 days after the first administration, all animals, finishing on days 6-7): group developed diarrhea finishing on
Signs of intoxication ([1]; group 4, 225 μg/kg, 2-3 days after the second administration): animals showed diarrhea.
Main observed toxic effect ([1]; rats, chronic): decreased body weight gain
Rat excretory system: urine volume ([1]; rats, chronic): reliable decreased urine volume
Chronic toxicity (overall) ([1]; rats, i.v. once every 3 weeks, intermediate stage 4 weeks): moderate toxicity
Antineoplastic activity (Lymphoid Leukosis P388): presence of the antineoplastic activity
Body weight effect (summary) ([2]; male rats, all test doses): decreased growth rate or decreased body weight regarding the initial One
Fatality ([2]; male rats, i.v. 4 mg/kg): 0
Fatality ([2]; male rats, i.v. 4.5 mg/kg): 3
Fatality ([2]; male rats, i.v. 5 mg/kg): 5
Fatality ([2]; male rats, i.v. 5.1 mg/kg): 4
Fatality ([2]; male rats, i.v. 5.4 mg/kg): 10
MTD at 14 days ([2]; male, white outbred, rat, in vivo, iv, rats, single i.v., read-out: Maximum tolerated dose): 4 mg/kg
Necropsy (per animal) ([2]; rats, 1 mg/kg i.v., 1 mg/kg): 1- NORMAL and 2- NORMAL and 3- light kidneys and 4- NORMAL and 5- NORMAL and 6- light kidneys, blurred pattern lines and 7- adrenals glands had hemorrhages, kidneys are and 8- light kidneys and 9- large spleen, granular kidneys and 10- kidneys with hemorrhages
Necropsy (per animal) ([2]; rats, 2 mg/kg i.v., 2 mg/kg): 1- very light kidneys, unclear pattern, large spleen and 2- light-brown kidneys, dark adrenal glands with and 3- light-brown kidneys with hemorrhages, kidney cut and 4- light-brown kidneys with hemorrhages, kidney cut and 5- kidneys are lighter than a standard and 6- kidneys are almost standard, dark and increased and 7- spotted liver, light kidneys, their structure is visible and 8- liver is lighter than a standard, light kidneys and 9- dark maroon pancreas, increased and bloody adrenal and 10- dark maroon pancreas, kidneys with hemorrhages,
Necropsy (per animal) ([2]; rats, 3 mg/kg i.v., 3 mg/kg): 1- light kidneys with hemorrhages and 2- light kidneys with hemorrhages, blurred pattern and 3- light kidneys with hemorrhages and 5- standard kidneys and 6- kidneys with hemorrhages, clear cut pattern and 7- light, spotted, unevenly stained kidneys and 8- light kidneys and 9- light kidneys, increased adrenal glands, kidneys with and 10- kidneys with hemorrhages, dark and increased
Necropsy (per animal) ([2]; rats, 4 mg/kg i.v., 4 mg/kg): 1- kidneys with hemorrhages, unclear pattern and 2- spotted kidneys with hemorrhages, clear pattern and 3- increased right adrenal gland, standard kidneys and 4- slightly increased adrenal glands, with hemorrhages, and 5- spotted kidneys with hemorrhages, clear pattern and 6- standard kidney color, blurred cut pattern, unclear and 7- kidney surface hemorrhages, visible pattern and 8- light kidneys with hemorrhage foci, unclear pattern of and 9- slightly increased, hyperemic adrenal glands, kidney and 10- standard kidneys
Necropsy ([2]; rats, 4.5 mg/kg i.v., dead No. 4 and survivors day 14, 4.5 mg/kg): increased and hyperemic kidneys; spotted, dark kidneys;; also recorded: Only rat No. 5 had Sight kidneys; also recorded: Others had standard ones
Necropsy ([2]; rats, 5 mg/kg i.v., dead animals and survivors day 14, 5 mg/kg): 2 - light brown kidneys with greenish shade, blurry cut and All rats had a large spleen
Necropsy ([2]; rats, 5.1 mg/kg i.v., survivors day 14, 5.1 mg/kg): One animal had increased adrenal glands, very light; also recorded: Others had standard ones
Toxic effect (summary) ([2]; rats, acute i.v.): diarrhea and the renal damage
Signs of intoxication ([2]; rats, single i.v. 1 mg/kg, 1 mg/kg): No diarrhea was observed on Day 5.
Signs of intoxication ([2]; rats, single i.v. 3 mg/kg, 3 mg/kg): All animals experienced diarrhea on Day
Signs of intoxication ([2]; rats, single i.v. 4.5 mg/kg, 4.5 mg/kg): Decreased mot. activity - 5-40 minutes; also recorded: Shortness of breath - 1-60 minutes; also recorded: diarrhea, cachexia, porphyria, decreased
Signs of intoxication ([2]; rats, single i.v. 5 mg/kg, 5 mg/kg): All animals developed diarrhea/cachexia
